Data taken from article PMC11602160, “Modulation of UPF1 catalytic activity upon interaction of SARS-CoV-2 Nucleocapsid protein with factors involved in nonsense mediated-mRNA decay” (Nucleic Acids Research, 2024).

Target: T1, full-length GST-tagged SARS-CoV-2 Nucleocapsid (N) protein (SARS-CoV-2, UniProt P0DTC9 1-419)
T1 construct: SARS-CoV-2 Nucleocapsid (N) protein, full length; also called GST-N
Assay: pull-down
Conditions: both partners purified

B1: UPF2 truncated construct lacking 120 and 45 residues at the N- and C-termini (domain or fragment, human, UniProt Q9HAU5 121-1227, looked up)
chain: MKEKEESIQLHQEAWERHHLRKELRSKNQNAPDSRPEENFFSRLDSSLKKNTAFVKKLKTITEQQRDSLSHDFNGLNLSKYIAEAVASIVEAKLKISDVNCAVHLCSLFHQRYADFAPSLLQVWKKHFEARKEEKTPNITKLRTDLRFIAELTIVGIFTDKEGLSLIYEQLKNIINADRESHTHVSVVISFCRHCGDDIAGLVPRKVKSAAEKFNLSFPPSEIISPEKQQPFQNLLKEYFTSLTKHLKRDHRELQNTERQNRRILHSKGELSEDRHKQYEEFAMSYQKLLANSQSLADLLDENMPDLPQDKPTPEEHGPGIDIFTPGKPGEYDLEGGIWEDEDARNFYENLIDLKAFVPAILFKDNEKSCQNKESNKDDTKEAKESKENKEVSSPDDLELELENLEINDDTLELEGGDEAEDLTKKLLDEQEQEDEEASTGSHLKLIVDAFLQQLPNCVNRDLIDKAAMDFCMNMNTKANRKKLVRALFIVPRQRLDLLPFYARLVATLHPCMSDVAEDLCSMLRGDFRFHVRKKDQINIETKNKTVRFIGELTKFKMFTKNDTLHCLKMLLSDFSHHHIEMACTLLETCGRFLFRSPESHLRTSVLLEQMMRKKQAMHLDARYVTMVENAYYYCNPPPAEKTVKKKRPPLQEYVRKLLYKDLSKVTTEKVLRQMRKLPWQDQEVKDYVICCMINIWNVKYNSIHCVANLLAGLVLYQEDVGIHVVDGVLEDIRLGMEVNQPKFNQRRISSAKFLGELYNYRMVESAVIFRTLYSFTSFGVNPDGSPSSLDPPEHLFRIRLVCTILDTCGQYFDRGSSKRKLDCFLVYFQRYVWWKKSLEVWTKDHPFPIDIDYMISDTLELLRPKIKLCNSLEESIRQVQDLEREFLIKLGLVNDKDSKDSMTEGENLEEDEEEEEGGAETEEQSGNESEVNEPEEEEGSDNDDDEGEEEEEENTDYLTDSNKENETDEENTEVMIKGGGLKHVPCVEDEDFIQALDKMMLENLQQRSGESVKVHQLDVAIPLHLKSQLRKGPPLGGGEGEAESADTMPFVMLTRKGNKQQFKILNVPMSSQLAANHWNQQQAEQEERMRMKKLTLDINERQEQED
notes: human UPF2 lacking 120 residues at the N-terminus and 45 residues at the C-terminus
  binding result: binds
